The results in this text go back to paper PMC12394070.

The target in this test is HA–TDP-43–FKBP.

On to FRB–PML–Myc, for which the solubility assay: share of TDP-43 in the insoluble fraction after heat stress with rapamycin (80% without rapamycin) (% of TDP-43 in the insoluble fraction) is 20.
